The values below come from patent US6127149.

The target of the experiment is cultured cells CH3/10T1/2 clone 8 (product of Dainippon Pharmaceutical Co., Ltd.). Description: adhesion of cells to coated dish (10 ug/cm^2), 1 hour, DNA of attached cells by spectrophotometer.

B1: invariant modified epimorphin fragment: fragment (2) of mouse epimorphin (Examples 10 to 12) (protein)
chain: NGNRTSVDLRIRRTQHSVLSRKFVDVMTEYNEAQILFRERSKGRIQRQLEITGRTTTDDELEEMLESGKPSIFISDIISDSQIT
The molecule B1 gave an absorbance (OD at 260 nm) of attached cells of 0.33 OD at 260 nm.
